assay: soluble on expression in E. coli; label from the status in PepcDB or PDB records

Soluble on expression in E. coli, not soluble:
MANNLMSGIIAQQPPIEAESDVHVVKSRLEWGEPAFTILDVRDRSIYNEGHIMGAMSMPIDELTERAAISLDTSRDIYIYGTNDGQTTQAAQILRSAGFKNVSQLKGGFGAWKAIGGATEGIIESRTPAAADDYNVVSRIQNHIETQQK
MGSDKIHHHHHHMLSRFSDSRPAVTVKNVALTYSGADKPALQIEDLTIPEGQCVVLCGQSDSGKSSFLKMLNGLTPEYYPAQLSGQIFLGDLDLQKSSLEEISRHIASVFQHPSTQFFHSQVLQELVFPCENQGLSREEIENRLAWVMELFGLASLSRRTISSLSGGQQQRLALAVTAMQGTDVLVLDEPTANLDQEGIAIVEDILKTLKSQGKTIIIAEHRLSYLSQLADRYLYFQDGQVVTDYLADEFLSRTEECRQDMGLRCYDSEPYGRAIAELADQFVNDKEGLLVENLSVSQKENTLYEIEKLCLASGQVVGLVGANGSGKTSLARYLVGLAEDKKSRISWQGQTLSSRQRLEKTAFVMQDVRLQLFAESVERELTLGRKNRAVDEHLVARFGLSDLLERHPVSLSGGEQQRVMIVASLLADKEIFIFDEPTSGLDLRRMQQVASALVDLKMKNKLVLLISHDEELLNLVCDKIVDIKQLK
RPVWYGEPVDIQPEHRDMMLVVDLSGSMAEEDMKTSNGDFVDRLTAVKQVVSDFIDQRKGDRLGLVLFGDHAYLQTPLTFDRNTVREQLDRTVLNLVGQRTAIGEGLGLATKTFIESNAPQRTIILLSDGANTAGVLEPLEAAQLAKDNHAKIYTVGIGAGEMQVRGFFGKQTVNTARDLDEDTLTKIATMTGGQYFRARNADELAEIYQTI
MRKNILIFSLIAFSLTIHCSEIRVQRSLEESITKDYDQDGVYSSYEKALRRTQESVYVTLPEKRGYWYTMLDRIKAEEKELIPDEKVRMRKR
MGSDKIHHHHHHMPPLNALRAFDAVARHGSFAGAAAELHVTHWAVGKQIRLLEDWFGLPLFDRRPRGVVLTDEGAVLLNDVSHAFEHLGTAVVRLRHNTLAHRISGVVRVNVPMSFAFCWLLPRLADFHSRYPDIDVRVSTTSRKLRYVADAFDIGVRSGPEQGAGVVSRPLMPDLRVPACNPALLRQHPIQSVADLRHHTLLHSATTRSAWSHWLREAGAADLRAARHVEFDHVNLQLGAAIEGLGVALASLPLIGRDLAEGRLVCPIASPVWRADDYTLVTNADRADDAAVSAFEQWMESMASQEAG
MGSDKIHHHHHHMRTDMTIEQNKNRRSAASGCAIHCHDCSMGTLCIPFTLNANELDQLDDIIERKKPIQKGEQIFKSGDPLKSLFAIRSGTIKSYTITEQGDEQITGFHLAGDVIGFDGIHAQSHQSFAQALETSMVCEIPFNILDELSGTMPKLRQQIMRLMSNEIMSDQEMILLLSKKNAEERLAAFISNLANRFGNRGFSAKEFRLTMTRGDIGNYLGLTVETISRLLGRFQKSGLIEVKGKYIIIVDHHELNLLAGNARIAR
MEKVLDLDVQVKANNNSNDSAGDERITSHSLCTPGCAKTGSFNSFCC
MVTPLTGTHEGVSCDGCAFTAFAGNRYKCLRCSDYDLCFSCFTTKNYGDQQTIADIPIHDESHPMQLILSSVDFDLVYQGDPTRHYDERKIVSFTCPYCNITGLTERQFGTHVLSQHPEAPGYSVICPLCIGNTEMEHIQSKETENLSVHWTEIHLHTMENLFRSTEPITTRPVQRRPMLARRGNRAGVSRTAAQGRPLQDEIGAEMAALLRNMGPDSVEDIRRFTEMMTVPLLPGIRSSQRLMTSTGDRPTVVVESAVTHQDPNVQQVIRPLATIPIYPPTSDESGDETPQPAADSADESEDDNDIQELDDMQPIVEDEALKKDEFWKTLKTRISEEDVDLILETMKSTAKVKEDIDDKMPVWTQRPLKRLANAAQVTTTSDSEGDPGWLPLSFETTPIRSTGCGGYWSDKRFLRPRKMQREQSVASSNAEIMEKAEIALALIRASCLHEPVFTDPTKPDIALKEALQHLRLGEKPAKMMEYQAAEELVNMPERDPITTGEMEVEIPDFTARGYGQIVDGNIPLGVVPEADEAITNSEDEEIVGGETSGDDEDEQEDDENDSQDSSVPEEINID
MGSDKIHHHHHHMKNIYLFIVSLFFFYTGCDTQQTKYPFSVETVLAKAGNNRKELEKALDYFYKQGDSIKIKAIEFLVAHMDIHYSETYYWKTREGKRVDFSEFDYANLETAVKAIDSMRKKYGSLDFQDTIIYDVNSLTGKYLINNVNHAVDTWRLSEYKDIPFNDFCEYILPYRVTVEPVTEWRKEYCKRYHWLTDSLQNKPLENVLDYAAIDYKDWFTFTYGSETRNEPLSRLSAQQLLFRKKGACEDIAALETFIFRSQGIPAAYISVPLWATSAGAHFSNTVFDTKMKPVKLDVTTHAVVDHPLDREPSKVIRYTYSSQPGTLASKEKEECIPTGFLQKTNYIDVTHEYWETSDVTIPLFNDTTHIIYACMFSMGRWNAEWWGERMENSVTFHNMPRGVVILPMIYKEHQLIPIGYPIVNGYNHQLYLVPDLLHTMTVEIEEQDRYLRFRPDKKYELFYWDNAWISLGTQVATMDADCLQFNQVPQNVLMLLVPEYSERKERPFIIMPDGTRYWW
MGSDKIHHHHHHCQTQVETAPTSDVIKLQQTALASQLGYDIVESLTVEVGPRLAGSPKDIIAVNWAINKLTSLGFDRVYKEPVQVPIWERGEAKAKITFPVEQPLVITALGGSIATPAGGIQAKIARFDSLEALQQAKPEDVQGKIAFIDQKTERHITGEGYGKSVGGRSKGAVVAAQKGAVAIVIRSIGTDHDRMAHTGVMRYQDDVPKIPAAAMSNPDADLVDALLKRNPDALLELQMSPKNAGFNTSYNVIAEVTGSSKPNEIVLIGAHLDSWDEGTGAIDDGAGVAIVTAAAKHIQDLLVKPARTVRVVLYAAEEIGLVGGKAYAETHKAELPLHYIAAESDFGAGRIYQIDTKVNESAFAEVQHALSPMSFNGVALGNNQASGGPDVSMLPALGVPVASLRQDGHDYFDYHHTPNDTLDKIDPAALAQNVAAYAQFAYIMANSTPTLTPLVIQSEK
MTVVKEELKEALEMLKNTGVRITPQRHAILEYLVESMTHPTADDIYKALEGKFPNMSVATVYNNLRVFKEVGLVKELTYGDASSRFDYVTSQHYHVICEKCGKIVDFPYGGLEKLEEEAAKTTGFVINSHRLEIYGVCPECHKA

Soluble on expression in E. coli, soluble:
MHRVHGTLHASFTIECRNMFKRFFLALIGVGILLSESTQASESPPYSMVLLTENFPPFNMAVDGKNFAQENNIDGIAAEVVREMFKRANIGYSMTLRFPWDRVYKLALDKPGYGVFSTTRLPEREKLFKWIGPLGSYDWIMLARGDSPITLASLEQAKDYRIGAYKGDAIGERLNAMGLNPILMLRDRDNVKKLANGQIDLWAVGDPVGRYLAKLEGVSGFKTALRFNSAELYLAVNKSTPDEIVNRLQAALDQMRTEGWVDAVKARYQLEHHHHHH
MSLGSQTDGSPAGGWPALNAVNKHLLHQHVLVKGNRTLLSMNKPGGFDCPSCSWPDPKKPHTFEYCENGAKALAWESTKKRVTPEFFARHTVSELATWSDHDLEKQGRIAEPMRYDAASDKYLPVTWDEAFAEIGEELRQLSDPWKLELYTSGRTSNEAAFLYQLFGRLYGMANFPDCSNMCHETTTVALPESIGVGKGTTTLEDFENADAIFIIGQNPGSNSPRMMSELHAAAKRGASIISFNPLREKALVRFASPQDPRDMLSLHGVEISSQYHQVRIGGDMIALQGVCKAVIEADDVARREHLPRVLDVAFIEEHTHGFEQYADYCRQLPWDLIESHSGLTRQAIEDVAAVYRRSERVICCWGMGVTQHKRGGDAVQQIINLLLLRGNIGKLGAGACPVRGHSNVQGDRTMGIYEKAGEPFLASMSKVFGFEASRRKGHAVAETCEALLRGEVEALISMGGNFFRAIPDIDAICPTVSRLKMTVLVNTKLNRSATVHGQKAFLLPCVARSERDLQNGVAQTITVEDSMSIVHGSTGMLEPASKHLISEVAIIAGIAKATLAPNPNVDWDSYVGDYARIRDKIEEVLPEQFYDFNRRILEPGGFRLPNAASERKWDTESGKANFLFTEGIYDEDDTPPGAAHLQLMTIRSHDQFNTTVYSNDDRYRDIFGDRMVVMLNPQDIERLGLKAGDYIEFQTALDLTTPRRAPGFKVIAYDVPPGCCAAYYPETNGLLPLANRDSRSNTPAAKSIPVNLVRMSPEGAQVALEREGHHHHHH
SESPEGAGPGEIVKDVKVPQAALNVSAHETGDMCRTPVAEEEEEVGIPIPAPGFLQVTERRRLHPLSRASCLRSPSWTKTRAEQNREKQPPSDPERQGTIVDTFLTVEEPKED
MVRNRFIRKMKKNLFKSNHLSYLKSKWKVKITGQIKMDFDNLLNLEEQYYQEGFLEGQNENIKQSFLEGKQYGLQVGFQRFTLLGQMEGLCDVIESYGLHSPTLEKNIHTIRTLMKGLKMNNDDESVMEFERVLIKLKNKFRTILITLHRLVKDKRTPTVTFEVFEDVSRAIAGEIRGFVENEDIAKNKTKQNQAQSW
TNDEETIQQQILALSADKRNFLRDPPAGVQFNFDFDQMYPVALVMLQEDELLSKMRFALVPKLVKEEVFWRNYFYRVSLIKQSAQLT
MSLKQKSSGKSVIITGVTQGLGRAMVDRFHELGWNIYGCGRSKDKIEELKKYYGNTHVFQIIDVSDSQQVSDWANYILHRNRAPDLLINNASIVNKNAPLWKVTAEEFENVMNVNVNGVVNVIRAFVPAMVARKAGMIINMSSSWGREGEAELAPYCASKFAIEGITKSLALELPYSMAVVALDPGGSISTPMLYSCAPQYVNESPTPEMWSQHAIPYILKITIDKNGASLTCPECTEGHHHHHH
MGKKYEIFLNENEHSLITPKVSFKEILRYYYLYPKNAIPSFKLPFFKPDLSGFSTPHITWLGHSSLFISFKEYKILIDPIFNTHASPISFINKAFKNAPVYNINDFNEIFAVIITHSHFDHLDAKSVKALKDKAKFFITPLKVGNYLKSYGVSEKKIIELDWWSGIEFGDLKIMATPAQHSSSRGDGKNKTLWASFVMEFLSVDKRVFFSADGGYFTHFKKIGEYFGSFDLACLESGQFNIAWPYSHSFPEQILKEAKDLNAKAVMPIHWGRFLAGTHAWNEVVKFLYENLDLPLITPKMGEAYEVGAKLEHHHHHH
MWNAGRETSSPGTELSENQAKKEKERLIKELQLITEERNDLRDRLRFLTERSMKNRSHFRPNPYYEDLERMEEAVMSILHNLEMENTEVHENNHKLKKEITFSR
MSLKQLDMTPQPDLSQKTGTGPVLTRLPVWRPALPPCNHACPAGENIQAWLSLAEAGRFEAAWQTLIEENPLPAIHGRVCYHPCESACNRAQVDDAVSIHAIERFLGDEALARGWQPAPPAPASGKKVLVIGAGPSGLSCAWHLNRLGHQVEIREAGPLAGGMLRFGIPAYRLPRDVLDREVARIVAAGVTLTLNHKVEDVLRERDEGGFDAVFMAIGAHLAKRVDIPAREAGKILDAVSFLEQASLAEEQGLPPPKLGRRVAIYGGGNTAMDAARTARRLGVEEAMIIYRRDREHMPAHAFEADEAEEEGIKINWLRSIRQLDNTNIEVEVMALDAEGKPVPTGKFETLEADSLILALGQEVDLSVLESIPGVRVNKEGVVQVGENLMTDVPGLFAGGDMVPSERTVTIATGHGKKAARHMDAWLRGRHYQKMVSYPLVGPEQLQLWFQTHAPASSQPVKPAWARDDFGEIIGGLDETAARYEAARCYSCGNCFECDGCYGSCPEQAIEKLGPGKGYQVDATRCTGCGACHDQCPCHAIELRQPEESEGHHHHHH

Source: the DeepSol protein solubility set
